Measurements: patent US20070185311A1 (EPIX MEDICAL INC A DELAWARE, published 2007)
Starred links: 1 amine or outer side, 2 acyl side, 3 side chain; linkers in the order of their positions; H or OH if unused. Positions of bridges follow the written chain, without caps; N, C: chain ends. Non-standard residues stand in square brackets, D forms with d. No end group written: not given here. Phe(4-OMe) = COc1ccc(C[C@H](N[*:1])C(=O)[*:2])cc1; Phe(F5) = N[C@@H](Cc1c(F)c(F)c(F)c(F)c1F)C(=O)O; Bpa = N[C@@H](Cc1ccc(C(=O)c2ccccc2)cc1)C(=O)O; Tyr(3-Cl) = N[C@@H](Cc1ccc(O)c(Cl)c1)C(=O)O; Bip = N[C@@H](Cc1ccc(-c2ccccc2)cc1)C(=O)O; Tyr(3-F) = N[C@@H](Cc1ccc(O)c(F)c1)C(=O)O; Tyr(3-I) = N[C@@H](Cc1ccc(O)c(I)c1)C(=O)O; Phe(3-OMe) = COc1cccc(C[C@H](N)C(=O)O)c1; Phe(3-Me) = Cc1cccc(C[C@H](N)C(=O)O)c1; Hyp = O=C(O)[C@@H]1C[C@@H](O)CN1; hPhe = N[C@@H](CCc1ccccc1)C(=O)O; 2Pal = N[C@@H](Cc1ccccn1)C(=O)O; 4Pal = N[C@@H](Cc1ccncc1)C(=O)O; NDecylGly = CCCCCCCCCCNCC(=O)O; Phg = N[C@H](C(=O)O)c1ccccc1; Ad = adenosine base unit; Gu = guanosine base unit; Dht = not defined here; Taz = not defined here; Inp = O=C(O)C1CCNCC1

B1: F-H-C-Hyp-Y(3-I)-D-L-C-Dht-I (peptide)
peptide: FHC[Hyp][Tyr(3-I)]DLC[Dht]I
modifications: disulfide 3-8 (inferred); reading uncertain; also: printed as F-H-C-Hyp-Y(3-I)-D-L-C-Dht-I
B2: F-H-C-Hyp-Y(3-I)-D-L-C-Taz-I (peptide)
peptide: FHC[Hyp][Tyr(3-I)]DLC[Taz]I
modifications: disulfide 3-8 (inferred); reading uncertain; also: printed as F-H-C-Hyp-Y(3-I)-D-L-C-Taz-I

Each binder was assayed against DD(E) fragment of fibrin (assay: affinity to DD(E) fragment of fibrin).

Kd [nM] | Binder
< 200 | [dF][dE]C[Hyp][Tyr(3-Cl)]GLCWIQ (disulfide 3-8 (inferred)) [(D-F)-(D-E)-C-Hyp-Y(3-Cl)-G-L-C-W-I-Q]
< 10000 | LPCDYYGTC[MeL][Inp] (cysteine pairing not given here) [L-P-C-D-Y-Y-G-T-C-MeL-Inp]
< 300 | FHC[Hyp]YDLCH[Bpa] (disulfide 3-8 (inferred)) [F-H-C-Hyp-Y-D-L-C-H-Bpa]
< 400 | [Phe(4-OMe)]HC[Hyp]YDLCHIL (disulfide 3-8 (inferred)) [F(4-OMe)-H-C-Hyp-Y-D-L-C-H-I-L]
< 300 | YEC[Hyp][Tyr(3-Cl)]GLCWIQ (disulfide 3-8 (inferred)) [Y-E-C-Hyp-Y(3-Cl)-G-L-C-W-I-Q]
< 400 | FHC[Hyp][Tyr(3-I)]DLC[Bpa]I (disulfide 3-8 (inferred)) [F-H-C-Hyp-Y(3-I)-D-L-C-Bpa-I]
< 200 | FHC[Hyp][Tyr(3-I)]DLCH[Phg] (disulfide 3-8 (inferred)) [F-H-C-Hyp-Y(3-I)-D-L-C-H-Phg]
< 100 | [Phe(F5)]HC[Hyp][Tyr(3-I)]DLCHI (disulfide 3-8 (inferred)) [F(F5)-H-C-Hyp-Y(3-I)-D-L-C-H-I]
< 500 | B1
< 200 | FHC[Hyp][Tyr(3-I)]DLC[4Pal]I (disulfide 3-8 (inferred)) [F-H-C-Hyp-Y(3-I)-D-L-C-4Pal-I]
< 100 | Y[dE]C[Hyp][Tyr(3-Cl)]GLCWIQ (disulfide 3-8 (inferred)) [Y-(D-E)-C-Hyp-Y(3-Cl)-G-L-C-W-I-Q]
< 100 | FHC[Hyp][Tyr(3-I)]DLCH[Phe(3-OMe)] (disulfide 3-8 (inferred)) [F-H-C-Hyp-Y(3-I)-D-L-C-H-F(3-OMe)]
< 500 | [hPhe]HC[Hyp]YDLCHIL (disulfide 3-8 (inferred)) [Hfe-H-C-Hyp-Y-D-L-C-H-I-L]
< 100 | [Phe(4-OMe)]HC[Hyp][Tyr(3-I)]DLCHIL (disulfide 3-8 (inferred)) [F(4-OMe)-H-C-Hyp-Y(3-I)-D-L-C-H-I-L]
< 500 | FHC[Hyp][Tyr(3-I)]DLC[2Pal]I (disulfide 3-8 (inferred)) [F-H-C-Hyp-Y(3-I)-D-L-C-2Pal-I]
< 500 | FEC[Hyp][Tyr(3-Cl)]GLCWIQ (disulfide 3-8 (inferred)) [F-E-C-Hyp-Y(3-Cl)-G-L-C-W-I-Q]
< 300 | F[dE]C[Hyp][Tyr(3-Cl)]GLCWIQ (disulfide 3-8 (inferred)) [F-(D-E)-C-Hyp-Y(3-Cl)-G-L-C-W-I-Q]

Kd [nM] | Binder
< 200 | FHC[Hyp][Tyr(3-I)]DLCH[nVal] (disulfide 3-8 (inferred)) [F-H-C-Hyp-Y(3-I)-D-L-C-H-nVal]
< 500 | [Gu]HC[Hyp][Tyr(3-I)]DLCHI (disulfide 3-8 (inferred)) [Gu-H-C-Hyp-Y(3-I)-D-L-C-H-I]
< 200 | FHCP[Tyr(3-Cl)]DLCHIL (disulfide 3-8 (inferred)) [F-H-C-P-Y(3-Cl)-D-L-C-H-I-L]
< 200 | [Tyr(26-Me)]HC[Hyp][Tyr(3-I)]DLCHI (disulfide 3-8 (inferred)) [Y(26-Me)-H-C-Hyp-Y(3-I)-D-L-C-H-I]
< 100 | FHC[Hyp][Tyr(3-F)]DLCHIL (disulfide 3-8 (inferred)) [F-H-C-Hyp-Y(3-F)-D-L-C-H-I-L]
< 100 | [Tyr(3-Cl)]HC[Hyp][Tyr(3-I)]DLCHI (disulfide 3-8 (inferred)) [Y(3-Cl)-H-C-Hyp-Y(3-I)-D-L-C-H-I]
< 500 | [Bip]HC[Hyp]YDLCHIL (disulfide 3-8 (inferred)) [Bip-H-C-Hyp-Y-D-L-C-H-I-L]
< 10000 | LPCDYYGTC[NDecylGly][dD] (not fully specified; cysteine pairing not given here) [L-P-C-D-Y-Y-G-T-C-n(Decyl)G-dD]
< 400 | [Ad]HC[Hyp][Tyr(3-I)]DLCHI (disulfide 3-8 (inferred)) [Ad-H-C-Hyp-Y(3-I)-D-L-C-H-I]
< 500 | B2
< 200 | FHC[Hyp][Tyr(3-I)]DLCH[Phe(3-Me)] (disulfide 3-8 (inferred)) [F-H-C-Hyp-Y(3-I)-D-L-C-H-F(3-Me)]
< 500 | FHC[Hyp]YDLCHIL (disulfide 3-8 (inferred)) [F-H-C-Hyp-Y-D-L-C-H-I-L]
< 10000 | LPCDYYGTC[NDecylGly]D (not fully specified; cysteine pairing not given here) [L-P-C-D-Y-Y-G-T-C-n(Decyl)G-D]
< 200 | WECPYGLCWIQ (disulfide 3-8 (inferred)) [W-E-C-P-Y-G-L-C-W-I-Q]
< 300 | FHCPYDLCHIL (disulfide 3-8 (inferred)) [F-H-C-P-Y-D-L-C-H-I-L]
< 100 | [Phe(4-OMe)][His(Bzl)]C[Hyp][Tyr(3-Cl)]DLCH[Bpa] (disulfide 3-8 (inferred)) [F(4-OMe)-H(Bzl)-C-Hyp-Y(3-Cl)-D-L-C-H-Bpa]
